The nanobody polyreactivity screen of Harvey et al. (2022)

Experiment: yeast display, Sf9 membrane polyspecificity reagent, FACS + sequencing; frameworks hold sequencing errors
Outline: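 After 36–48 hours of galactose induction, yeast (Saccharomyces cerevisiae BJ5465) displaying a synthetic nanobody library were stained at 4 °C for 1 hour with 10% biotinylated, detergent-solubilized Sf9 membrane reagent. Streptavidin microbeads enriched the stained cells before FACS sorting into low and high (top ~1%) gates on anti-HA and streptavidin fluorescence. Each clone's polyreactivity label reflects its gate of origin.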

For “QVQLVESGGGLVQAGGSLRLSCAASGFIFTKNTMGWYRQAPGKEREWVAAISRGGSTYYADSVKGRFTISRDNAKNTVYLQMNSLKPEDTAVYYCAALYNSTKYGVYTNGPQAEYDYWGQGTQVTVSS”, the “polyreactivity (PSR sort gate)” value was “high polyreactivity”.
For “QVQLVESGGGLVQAGGSLRLSCAASGFIFTLYAMGWYRQAPGKERELVASIRGSGGNTYYADSVKGRFTISRDNAKNTVYLQMNSLKPEDTAVYYCAARTYRRPYYSWGQGTQVTVSS”, the “polyreactivity (PSR sort gate)” value was “high polyreactivity”.
For “QVQLVESGGGLVQAGGSLRLSCAASGFIFTPYAKGWYRQAPGKERELVAAISSGGSTYADSVKGRFTISRDNAKNTVYLQMNSLKPEDTAVYYCAAYYTGYSTTYYYWGQGTQVSVSS”, the “polyreactivity (PSR sort gate)” value was “low polyreactivity”.
For “QVQLVESGGGLVQAGGSLRLSCAASGFIFTPYAMGWYRQAPGKERELVAAISRSAGSTYYADSVKGRFTISRDNAKNTVYLQMNSLKPEDTAVYYCAADSLTYIAYDYWGQGTQVTVSS”, the “polyreactivity (PSR sort gate)” value was “high polyreactivity”.
With “QVQLVESGGGLVQAGGSLRLSCAASGFIFTQYTMGWYRQAPGKERELVAAISFSDSSTYYADSVKGRFTISRDNAKNTVYLEMNSLKPEDTAVYFCAADYSVTLRIGGYYWFYAFDYWGQGTQVTVSS” the “polyreactivity (PSR sort gate)” value was “low polyreactivity”.
For “QVQLVESGGGLVQAGGSLRLSCAASGFIFTRYAMGWYRPAPGKERELVAAISASGGSTYYADSVKGRFTISRDNAKNTVYLQMNSLKPEDTAVYYCAAGGSWFRYPPRMDYWGQGTQVTVSS”, the “polyreactivity (PSR sort gate)” value was “high polyreactivity”.
For “QVQLVESGGGLVQAGGSLRLSCAASGFIFTRYAMGWYRQAPGKERELVAAISWIGTSTYYADSVKGRFTISRDNAKNTVYLQMNSLKPEDTAVYYCNALRYSTGRPGFYLGYDYWGQGTQVTVSS”, the “polyreactivity (PSR sort gate)” value was “high polyreactivity”.
With “QVQLVESGGGLVQAGGSLRLSCAASGFIFTRYVMGWYRQAAGKERELVAAISRIGASTYYADSVKGRFTISRDNAKNNFYLQMNCLNPEATAVYYCKVVSGGYCEYDYWGHGTQVTVSS” the “polyreactivity (PSR sort gate)” value was “high polyreactivity”.
For “QVQLVESGGGLVQAGGSLRLSCAASGFIFTTNAMGWYRQAPGKERELVAAITRSGGSTYADSVKGRFTISRDNAKNTVYLQMNSLKPEDTAVYYCNADWAGVYTSYEYDYWGQGTQVTVSS”, the “polyreactivity (PSR sort gate)” value was “low polyreactivity”.
In the case of “QVQLVESGGGLVQAGGSLRLSCAASGFIFTWYAMGWYRQAPGKEREFVAGISRSGGRTYYADSLKGRFTISRDNAKNTVYLQMNSQKPEDTAVYDCNAVLVGYRPYREFDHWGQGTQVTVSS”, the “polyreactivity (PSR sort gate)” value is reported as “high polyreactivity”.
For “QVQLVESGGGLVQAGGSLRLSCAASGFIFTYYAMGWYRQAPGKERELVAAITSGGSTNYADSVKGRFTISRDNAKITVYLQMNSLKPEDTAVYYCASRIYYGRFWYDYWGQGTQVTVSS”, the “polyreactivity (PSR sort gate)” value was “high polyreactivity”.
For “QVQLVESGGGLVQAGGSLRLSCAASGFIFTYYAMGWYRQAPGKERELVAVISWSGGTTYYADSVKGRFTISRDNAKNTVYLQMNSLKPEDTAVYYCNADRSLLYSRKIEYDYWGQGTQVTVSS”, the “polyreactivity (PSR sort gate)” value was “low polyreactivity”.
For “QVQLVESGGGLVQAGGSLRLSCAASGFIFVDYAMGWYRQAPGKERELVAAISSSGSTTYADSVKGRFTISRDNAKNIVYLKMNSLKPEDTAVYYCAAGLPRVLKDATFDYWGQGTQVTVSS”, the “polyreactivity (PSR sort gate)” value was “low polyreactivity”.
For “QVQLVESGGGLVQAGGSLRLSCAASGFIFVFNTMGWYRQAPGKERELVAAISVSGDSTYADSVKGRFTISRDNAKNTVYLQMNSLKPEDTAVYYCNAGSTELGWTWELDYWGQGTQVNVSS”, the “polyreactivity (PSR sort gate)” value was “high polyreactivity”.
For “QVQLVESGGGLVQAGGSLRLSCAASGFIFVIYGMGWYRQAPGKERELVAAISRGGSTYADSVKGRFTISRDNAKNTVYLQMNSLKPEDTAVYYCNARLYKRGGFGYYYWGQGTQVTVSS”, the “polyreactivity (PSR sort gate)” value was “high polyreactivity”.
For “QVQLVESGGGLVQAGGSLRLSCAASGFIFVLYTMGWYRQAPGKEREMVASITQSGGSTYYADSVKGRFTISRDNAKNTVYLQMNSLKPEDTAVYYCAAVWAHEWWELDYWGQGTQVTVSS”, the “polyreactivity (PSR sort gate)” value was “low polyreactivity”.
In the case of “QVQLVESGGGLVQAGGSLRLSCAASGFIFVPYTMGWYRQAPGKERELVATINSNGGSTYYADSVKGRFTISRDNAKNTVYLQMNSLKPEDTAVYYCAAYYRWIGGRYTPYYYWGQGTQVTVSS”, the “polyreactivity (PSR sort gate)” value is reported as “high polyreactivity”.
In the case of “QVQLVESGGGLVQAGGSLRLSCAASGFIFVQNTMGWYRQAPGKERELVAAISRGTGRTYYADSVKGRFTISRDNAKNTVYLQMNSLKPDDTAVYYCNVVYPQRYRSREDDYWGQGTQVTVSS”, the “polyreactivity (PSR sort gate)” value is reported as “high polyreactivity”.
With “QVQLVESGGGLVQAGGSLRLSCAASGFIFVRYAMGWYRQAPGKERELVASISGRGSSTYYADSVKGRFTISRDNAKNTVYLQMNSLKPEDTAVYYCAADYYRRIGGYPYDYDYWGQGTQVTVSS” the “polyreactivity (PSR sort gate)” value was “high polyreactivity”.
For “QVQLVESGGGLVQAGGSLRLSCAASGFIFVRYARGWNRQAPGKERELVASITRSGGSTYYADSVKGRFTISRDNAKNTVYLQMNSLKPEDTAVYYCAASYYRSRGSTYGYWGQGTQVTVSS”, the “polyreactivity (PSR sort gate)” value was “high polyreactivity”.
In the case of “QVQLVESGGGLVQAGGSLRLSCAASGFIFVYNAMGWYRPAPGKERELVAAIDYGGGSTTYADSVKGRFTISRDNAKNTVYLQMNSLKPEDTAVYYCAAYYRYLDDIYEYEYWGQGTQVTVSS”, the “polyreactivity (PSR sort gate)” value is reported as “low polyreactivity”.
For “QVQLVESGGGLVQAGGSLRLSCAASGFIFVYNAMGWYRQAPGKEREFVASITWSGGRTYYADSVKGRFTISRDNAKNTVYLQMNSLKPEDTAVYYCATKYPNSQGRRYDYWGQGTQVTVSS”, the “polyreactivity (PSR sort gate)” value was “low polyreactivity”.
For “QVQLVESGGGLVQAGGSLRLSCAASGFIFVYNSMGWSRPAPGKEREFVASITWSGGRTYYADSVKGRFTISRDNAKNTVYLQMNSLKREVTAVYFCATKYPNSQVRRYDYWGQGTQVTVSS”, the “polyreactivity (PSR sort gate)” value was “low polyreactivity”.
For “QVQLVESGGGLVQAGGSLRLSCAASGFIFVYYAMGWYRQAPGKERELVAAISGHGGRTYYADSVKGRFTISRDNAKNTVYLQMNSLKPEDTAVYYCAALLYWRGYGYNYWGQGTQVTVSS”, the “polyreactivity (PSR sort gate)” value was “high polyreactivity”.
With “QVQLVESGGGLVQAGGSLRLSCAASGFIFVYYAMGWYRQAPGKERELVAAISRASSTSYADSVKGRFTISRDNAKNTVYLQMISLKPEDTAVYYCAAVYYGGFSDYDYWGQGTQVTVSS” the “polyreactivity (PSR sort gate)” value was “low polyreactivity”.
With “QVQLVESGGGLVQAGGSLRLSCAASGFIFVYYAMGWYRQAPGKERELVAAITWRGGSTNYADSVKGRFTISRDNAKNTVYLQMNSLIPEDTAVYYCAAYSVWGGSYLALDYWGQGSQVTVSS” the “polyreactivity (PSR sort gate)” value was “low polyreactivity”.
With “QVQLVESGGGLVQAGGSLRLSCAASGFIFVYYVMGWYRQAPGKERELVAAITQSGGSTYYADSVKGRFTISRDNAKNTVYLQMNSLKPEDTAVYYCAAYRRTTGGGYDYWGQGTQVTVSS” the “polyreactivity (PSR sort gate)” value was “high polyreactivity”.
With “QVQLVESGGGLVQAGGSLRLSCAASGFIFVYYVMGWYRQAPGKERELVAAITQSGGSTYYADSVKGRFTISRDNAKYTVYLQMNSLKPEDTAVYYCAAYRRTTGGGYDYWGQGTQVTVSS” the “polyreactivity (PSR sort gate)” value was “high polyreactivity”.
For “QVQLVESGGGLVQAGGSLRLSCAASGFIFWANAMGWYRQAPGKERELVAAITWRNGRTYYADSVKGRFTISRDNAKNTVYLQMNSLKPEDTAVYYCAAPGSYARGTGRDYWGQGTQVTVSS”, the “polyreactivity (PSR sort gate)” value was “high polyreactivity”.
With “QVQLVESGGGLVQAGGSLRLSCAASGFIFWAYAMGWYRLAPGKERELVAAITWNGGSTNYADSVKGRFTISRDNAKNTVYLQMNSLKPEDTAVYYCAVSRSLSFRYPGYYWGQGTQVTVSS” the “polyreactivity (PSR sort gate)” value was “low polyreactivity”.
For “QVQLVESGGGLVQAGGSLRLSCAASGFIFWAYDMGWYRQAPGKERELVAGISKRGGTTYYADSVKGRFTISRDNAKNTVYLQMNSLKPEDTAVYYCAVRLYLEMDYWGQGTQVTVSS”, the “polyreactivity (PSR sort gate)” value was “high polyreactivity”.
